From patent publication EP2042517A1

What was measured:
[1] = target: human V158 FcγRIIIa extracellular region fused with GST (human) (UniProt P08637); assay: AlphaScreen competition
[2] = target: FcγRIIIa on human PBMCs, heterozygous V158/F158 (human) (UniProt P08637); assay: cell-based or functional assay
[3] = target: FcγRIIIa on human PBMCs, homozygous F158/F158 (human) (UniProt P08637); assay: cell-based or functional assay
[4] = target: F158 FcγRIIIa used in SPR (human) (UniProt P08637); assay: SPR
[5] = target: His-tagged V158 FcγRIIIa (human) (UniProt P08637); assay: SPR, His-tagged receptor immobilized, antibody flowed

Substance	Fold vs WT [1] [fold]	ADCC EC50 (DoHH-2 target cells, human PBMCs) [2] [ng/mL]	further results
alemtuzumab V264I/N297D/I332E (antibody)	0.05	–	–
alemtuzumab S239D/I332E (antibody)	–	3	–
alemtuzumab V264I/I332E (antibody)	–	4	–
wild-type rituximab (antibody)	–	–	ADCC EC50 (WIL2-S target cells, human PBMCs) [3]: 1.7 ng/mL
alemtuzumab A298H (antibody)	0.27	–	–
wild-type alemtuzumab (antibody)	–	9.9	Kd [4]: 730 nM; Kd [5]: 68 nM
